In publication PMC7005732:

Columns and labels:
[1] = target: Human non-translating 80S ribosome, puromycin-treated, purified from HeLa cells (human (endogenous in HeLa)) (UniProt P62750); assay: cryo-EM structure; in vivo pulled-out Ebp1-ribosome complex (dataset 1; merged with dataset 2 for the final map): 100 nM 80S ribosomes purified from HeLa cells without addition of recombinant Ebp1; occupancy estimated from computational particle sorting
[2] = target: Human non-translating 80S ribosome, puromycin-treated, purified from HeLa cells (human (endogenous in HeLa)) (UniProt P62750); assay: cryo-EM structure; in vitro reconstituted complex (dataset 2; merged with dataset 1 for the final map): 100 nM purified HeLa 80S ribosomes with an eightfold excess of recombinant Ebp1, SEC buffer (20 mM HEPES KOH pH 7.5, 5 mM Mg(OAc)2, 175 mM KOAc, 1 mM TCEP); occupancy estimated from computational particle sorting

Row | fraction of ribosomes decorated with Ebp1 [1] [%] | fraction of ribosomes decorated with Ebp1 [2] [%] | Substance
1 | 25 | – | Endogenous Ebp1 on 80S ribosomes purified from HeLa cells (from UniProt Q9UQ80 1-394) (natural protein)
2 | – | 75 | ErbB3 receptor-binding protein (Ebp1), full-length, p48 isoform, recombinant (from UniProt Q9UQ80 1-394) (natural protein)
